Target: B7.1 on mouse macrophages (CRL-2751) (mouse) (UniProt Q00609)
Assay: flow cytometry on mouse macrophages stained with FITC anti-B7-1 after medium from naive HEK-293 cells

UniProt Q00609, sequence (Q00609 38-306): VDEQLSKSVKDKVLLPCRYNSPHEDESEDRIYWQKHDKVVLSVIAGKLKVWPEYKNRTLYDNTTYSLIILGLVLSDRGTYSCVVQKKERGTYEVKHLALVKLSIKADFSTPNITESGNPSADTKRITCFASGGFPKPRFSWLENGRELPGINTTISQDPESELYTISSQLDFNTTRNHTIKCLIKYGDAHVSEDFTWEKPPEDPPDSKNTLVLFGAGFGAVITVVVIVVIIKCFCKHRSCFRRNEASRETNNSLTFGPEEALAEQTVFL

Question: For “Armenian hamster IgG FITC-conjugated anti B7-1 (Santa Cruz Biotechnology) (antibody)”, which percent of macrophages B7-positive in the absence of CTLA4IgG is on record?
Answer: Its percent of macrophages B7-positive in the absence of CTLA4IgG is 18%.

Source: US20140147418A1
